The values below come from the array DNA melting data of Ke et al..

The data set is described as follows: melting temperature; UV melt of duplexes.

On to “TAGTGGCGATTAGATTCTGC+GCAGAATCTAATCGCCACTA ((((((((((((((((((((+))))))))))))))))))))”, for which the Tm (usually the temperature at the midpoint of the melting transition) is, setting by setting: (sodium 0.07 M, strand 2 µM) 57 °C; (sodium 0.12 M, strand 2 µM) 60.6 °C; (sodium 0.22 M, strand 2 µM) 64.8 °C; (sodium 0.62 M, strand 2 µM) 69.1 °C; (sodium 1.02 M, strand 2 µM) 71.2 °C.

As to “ATATATATGAATTCATATATAT+ATATATATGAATTCATATATAT ((((((((((((((((((((((+))))))))))))))))))))))”, the Tm (sodium 0.12 M, strand 6 µM) came to 48.9 °C.

Turning to “GTCATACGACTGAGTGCAACATTGTTCAAA+TTTGAACAATGTTGCACTCAGTCGTATGAC ((((((((((((((((((((((((((((((+))))))))))))))))))))))))))))))”, the Tm is, setting by setting: (sodium 0.07 M, strand 2 µM) 62.7 °C; (sodium 0.12 M, strand 2 µM) 66.8 °C; (sodium 0.22 M, strand 2 µM) 70.8 °C; (sodium 0.62 M, strand 2 µM) 75.9 °C; (sodium 1.02 M, strand 2 µM) 76.9 °C.

Take “CTTAAGATATGAGAACTTCAACTAATGTGT+ACACATTAGTTGAAGTTCTCATATCTTAAG ((((((((((((((((((((((((((((((+))))))))))))))))))))))))))))))”: the Tm (sodium 0.07 M, strand 2 µM) is 56.8 °C; the melting temperature (Tm) (sodium 0.12 M, strand 2 µM) amounted to 61.3 °C; the melting temperature (Tm) (sodium 0.22 M, strand 2 µM) was 64.9 °C; the Tm (sodium 0.62 M, strand 2 µM) was found to be 70.5 °C; the melting temperature (Tm) (sodium 1.02 M, strand 2 µM) worked out at 71.8 °C.

Take “CTCGTACCTTCCGGTCC+GGACCGGAAGGTACGAG (((((((((((((((((+)))))))))))))))))”: for the setting “sodium 0.1 M, strand 4 µM”, the Tm came out at 60.6 °C.

Regarding “CTTCAACGGATCAGGTAGGACTGTGGTGGG+CCCACCACAGTCCTACCTGATCCGTTGAAG ((((((((((((((((((((((((((((((+))))))))))))))))))))))))))))))”, the Tm reads like this: (sodium 0.07 M, strand 2 µM) 67.6 °C; (sodium 0.12 M, strand 2 µM) 71.7 °C; (sodium 0.22 M, strand 2 µM) 74.7 °C; (sodium 0.62 M, strand 2 µM) 78.8 °C; (sodium 1.02 M, strand 2 µM) 80.1 °C.

In the case of “TTCCAAAAGGAGTTATGAGTTGCGA+TCGCAACTCATAACTCCTTTTGGAA (((((((((((((((((((((((((+)))))))))))))))))))))))))”, the Tm (sodium 0.07 M, strand 2 µM) was determined as 59.1 °C; the Tm (sodium 0.12 M, strand 2 µM) stood at 63 °C; the Tm (sodium 0.22 M, strand 2 µM) turned out to be 67.2 °C; the Tm (sodium 0.62 M, strand 2 µM) came out at 71.6 °C; the Tm (sodium 1.02 M, strand 2 µM) came out at 73.8 °C.

Regarding “AACGCCGGTAGAGTGCGCGCAA+TTGCGCGCACTCTACCGGCGTT ((((((((((((((((((((((+))))))))))))))))))))))”, the Tm (sodium 0.12 M, strand 5.9 µM) was found to be 79.1 °C.

For “AGCAGTCCGCCACACCCTGA+TCAGGGTGTGGCGGACTGCT ((((((((((((((((((((+))))))))))))))))))))”, the Tm (sodium 0.07 M, strand 2 µM) was determined as 66.5 °C; the Tm (sodium 0.12 M, strand 2 µM) was determined as 69.9 °C; the Tm (sodium 0.22 M, strand 2 µM) was 74 °C; the Tm (sodium 0.62 M, strand 2 µM) stood at 76.9 °C; the Tm (sodium 1.02 M, strand 2 µM) was 78.5 °C.

For the substance “CCCTGCACTTTAACTGAATTGTTTA+TAAACAATTCAGTTAAAGTGCAGGG (((((((((((((((((((((((((+)))))))))))))))))))))))))”, the Tm (sodium 0.07 M, strand 2 µM) worked out at 57.4 °C; the Tm (sodium 0.12 M, strand 2 µM) is 61.4 °C; the Tm (sodium 0.22 M, strand 2 µM) worked out at 65.6 °C; the Tm (sodium 0.62 M, strand 2 µM) came out at 70.1 °C; the Tm (sodium 1.02 M, strand 2 µM) was 72.5 °C.

Turning to “AATATATATGAATTCTAATTATAA+TTATAATTAGAATTCATATATATT ((((((((((((((((((((((((+))))))))))))))))))))))))”, the Tm (sodium 0.12 M, strand 4.4 µM) came out at 46.2 °C.

Take “ATGCAATGCTACATATTCGC+GCGAATATGTAGCATTGCAT ((((((((((((((((((((+))))))))))))))))))))”: the Tm was 55.2 °C (sodium 0.07 M, strand 2 µM); 59.5 °C (sodium 0.12 M, strand 2 µM); 62.9 °C (sodium 0.22 M, strand 2 µM); 67 °C (sodium 0.62 M, strand 2 µM); 68.9 °C (sodium 1.02 M, strand 2 µM).
